Starred links: 1 amine or outer side, 2 acyl side, 3 side chain; linkers in the order of their positions; H or OH if unused. Non-standard residues stand in square brackets, D forms with d. *: point of attachment. C20 diacid = O=C(O)CCCCCCCCCCCCCCCCCCC(=O)*; γGlu = O=C(O)[C@H](CCC(=O)[*:2])N[*:1]; Hyp = O=C(O)[C@@H]1C[C@@H](O)CN1; NMeD = CN[C@@H](CC(=O)O)C(=O)O; NMeN = CN[C@@H](CC(N)=O)C(=O)O
B1: polypeptide derivative M43 (peptide)
peptide: {C20 diacid-γGlu}-ASQLSTAATQRLADFLRHSSSSLKPILPPTNVGSNT[Hyp]-NH2
SMILES: CC[C@H](C)[C@H](NC(=O)[C@@H]1CCCN1C(=O)[C@H](CCCCN)NC(=O)[C@H](CC(C)C)NC(=O)[C@H](CO)NC(=O)[C@H](CO)NC(=O)[C@H](CO)NC(=O)[C@H](CO)NC(=O)[C@H](Cc1c[nH]cn1)NC(=O)[C@H](CCCNC(=N)N)NC(=O)[C@H](CC(C)C)NC(=O)[C@H](Cc1ccccc1)NC(=O)[C@H](CC(=O)O)NC(=O)[C@H](C)NC(=O)[C@H](CC(C)C)NC(=O)[C@H](CCCNC(=N)N)NC(=O)[C@H](CCC(N)=O)NC(=O)[C@@H](NC(=O)[C@H](C)NC(=O)[C@H](C)NC(=O)[C@@H](NC(=O)[C@H](CO)NC(=O)[C@H](CC(C)C)NC(=O)[C@H](CCC(N)=O)NC(=O)[C@H](CO)NC(=O)[C@H](C)NC(=O)CC[C@H](NC(=O)CCCCCCCCCCCCCCCCCCC(=O)O)C(=O)O)[C@@H](C)O)[C@@H](C)O)C(=O)N[C@@H](CC(C)C)C(=O)N1CCC[C@H]1C(=O)N1CCC[C@H]1C(=O)N[C@H](C(=O)N[C@@H](CC(N)=O)C(=O)N[C@H](C(=O)NCC(=O)N[C@@H](CO)C(=O)N[C@@H](CC(N)=O)C(=O)N[C@H](C(=O)N1C[C@H](O)C[C@H]1C(N)=O)[C@@H](C)O)C(C)C)[C@@H](C)O
B2: polypeptide derivative M44 (peptide)
peptide: {C20 diacid-γGlu}-ASQLSTAATQRLADFLRHSSN[NMeN]LKPILPPTNVGSNT[Hyp]-NH2
SMILES: CC[C@H](C)[C@H](NC(=O)[C@@H]1CCCN1C(=O)[C@H](CCCCN)NC(=O)[C@H](CC(C)C)NC(=O)[C@H](CC(N)=O)N(C)C(=O)[C@H](CC(N)=O)NC(=O)[C@H](CO)NC(=O)[C@H](CO)NC(=O)[C@H](Cc1c[nH]cn1)NC(=O)[C@H](CCCNC(=N)N)NC(=O)[C@H](CC(C)C)NC(=O)[C@H](Cc1ccccc1)NC(=O)[C@H](CC(=O)O)NC(=O)[C@H](C)NC(=O)[C@H](CC(C)C)NC(=O)[C@H](CCCNC(=N)N)NC(=O)[C@H](CCC(N)=O)NC(=O)[C@@H](NC(=O)[C@H](C)NC(=O)[C@H](C)NC(=O)[C@@H](NC(=O)[C@H](CO)NC(=O)[C@H](CC(C)C)NC(=O)[C@H](CCC(N)=O)NC(=O)[C@H](CO)NC(=O)[C@H](C)NC(=O)CC[C@H](NC(=O)CCCCCCCCCCCCCCCCCCC(=O)O)C(=O)O)[C@@H](C)O)[C@@H](C)O)C(=O)N[C@@H](CC(C)C)C(=O)N1CCC[C@H]1C(=O)N1CCC[C@H]1C(=O)N[C@H](C(=O)N[C@@H](CC(N)=O)C(=O)N[C@H](C(=O)NCC(=O)N[C@@H](CO)C(=O)N[C@@H](CC(N)=O)C(=O)N[C@H](C(=O)N1C[C@H](O)C[C@H]1C(N)=O)[C@@H](C)O)C(C)C)[C@@H](C)O
B3: polypeptide derivative M45 (peptide)
peptide: {C20 diacid-γGlu}-ASQLSTAATQRLADFLRHSSN[NMeD]LKPILPPTNVGSNT[Hyp]-NH2
SMILES: CC[C@H](C)[C@H](NC(=O)[C@@H]1CCCN1C(=O)[C@H](CCCCN)NC(=O)[C@H](CC(C)C)NC(=O)[C@H](CC(=O)O)N(C)C(=O)[C@H](CC(N)=O)NC(=O)[C@H](CO)NC(=O)[C@H](CO)NC(=O)[C@H](Cc1c[nH]cn1)NC(=O)[C@H](CCCNC(=N)N)NC(=O)[C@H](CC(C)C)NC(=O)[C@H](Cc1ccccc1)NC(=O)[C@H](CC(=O)O)NC(=O)[C@H](C)NC(=O)[C@H](CC(C)C)NC(=O)[C@H](CCCNC(=N)N)NC(=O)[C@H](CCC(N)=O)NC(=O)[C@@H](NC(=O)[C@H](C)NC(=O)[C@H](C)NC(=O)[C@@H](NC(=O)[C@H](CO)NC(=O)[C@H](CC(C)C)NC(=O)[C@H](CCC(N)=O)NC(=O)[C@H](CO)NC(=O)[C@H](C)NC(=O)CC[C@H](NC(=O)CCCCCCCCCCCCCCCCCCC(=O)O)C(=O)O)[C@@H](C)O)[C@@H](C)O)C(=O)N[C@@H](CC(C)C)C(=O)N1CCC[C@H]1C(=O)N1CCC[C@H]1C(=O)N[C@H](C(=O)N[C@@H](CC(N)=O)C(=O)N[C@H](C(=O)NCC(=O)N[C@@H](CO)C(=O)N[C@@H](CC(N)=O)C(=O)N[C@H](C(=O)N1C[C@H](O)C[C@H]1C(N)=O)[C@@H](C)O)C(C)C)[C@@H](C)O
B4: polypeptide derivative M46 (peptide)
peptide: {C20 diacid-γGlu}-ASQLSTAATQRLADFLRHSSQNLKPILPPTNVGSNT[Hyp]-NH2
SMILES: CC[C@H](C)[C@H](NC(=O)[C@@H]1CCCN1C(=O)[C@H](CCCCN)NC(=O)[C@H](CC(C)C)NC(=O)[C@H](CC(N)=O)NC(=O)[C@H](CCC(N)=O)NC(=O)[C@H](CO)NC(=O)[C@H](CO)NC(=O)[C@H](Cc1c[nH]cn1)NC(=O)[C@H](CCCNC(=N)N)NC(=O)[C@H](CC(C)C)NC(=O)[C@H](Cc1ccccc1)NC(=O)[C@H](CC(=O)O)NC(=O)[C@H](C)NC(=O)[C@H](CC(C)C)NC(=O)[C@H](CCCNC(=N)N)NC(=O)[C@H](CCC(N)=O)NC(=O)[C@@H](NC(=O)[C@H](C)NC(=O)[C@H](C)NC(=O)[C@@H](NC(=O)[C@H](CO)NC(=O)[C@H](CC(C)C)NC(=O)[C@H](CCC(N)=O)NC(=O)[C@H](CO)NC(=O)[C@H](C)NC(=O)CC[C@H](NC(=O)CCCCCCCCCCCCCCCCCCC(=O)O)C(=O)O)[C@@H](C)O)[C@@H](C)O)C(=O)N[C@@H](CC(C)C)C(=O)N1CCC[C@H]1C(=O)N1CCC[C@H]1C(=O)N[C@H](C(=O)N[C@@H](CC(N)=O)C(=O)N[C@H](C(=O)NCC(=O)N[C@@H](CO)C(=O)N[C@@H](CC(N)=O)C(=O)N[C@H](C(=O)N1C[C@H](O)C[C@H]1C(N)=O)[C@@H](C)O)C(C)C)[C@@H](C)O
B5: polypeptide derivative M47 (peptide)
peptide: {C20 diacid-γGlu}-ASQLSTAATQRLADFLRHSSENLKPILPPTNVGSNT[Hyp]-NH2
SMILES: CC[C@H](C)[C@H](NC(=O)[C@@H]1CCCN1C(=O)[C@H](CCCCN)NC(=O)[C@H](CC(C)C)NC(=O)[C@H](CC(N)=O)NC(=O)[C@H](CCC(=O)O)NC(=O)[C@H](CO)NC(=O)[C@H](CO)NC(=O)[C@H](Cc1c[nH]cn1)NC(=O)[C@H](CCCNC(=N)N)NC(=O)[C@H](CC(C)C)NC(=O)[C@H](Cc1ccccc1)NC(=O)[C@H](CC(=O)O)NC(=O)[C@H](C)NC(=O)[C@H](CC(C)C)NC(=O)[C@H](CCCNC(=N)N)NC(=O)[C@H](CCC(N)=O)NC(=O)[C@@H](NC(=O)[C@H](C)NC(=O)[C@H](C)NC(=O)[C@@H](NC(=O)[C@H](CO)NC(=O)[C@H](CC(C)C)NC(=O)[C@H](CCC(N)=O)NC(=O)[C@H](CO)NC(=O)[C@H](C)NC(=O)CC[C@H](NC(=O)CCCCCCCCCCCCCCCCCCC(=O)O)C(=O)O)[C@@H](C)O)[C@@H](C)O)C(=O)N[C@@H](CC(C)C)C(=O)N1CCC[C@H]1C(=O)N1CCC[C@H]1C(=O)N[C@H](C(=O)N[C@@H](CC(N)=O)C(=O)N[C@H](C(=O)NCC(=O)N[C@@H](CO)C(=O)N[C@@H](CC(N)=O)C(=O)N[C@H](C(=O)N1C[C@H](O)C[C@H]1C(N)=O)[C@@H](C)O)C(C)C)[C@@H](C)O
B6: polypeptide derivative M48 (peptide)
peptide: {C20 diacid-γGlu}-ASQLSTAATQRLADFLRHSSSNLKPILPPTNVGSNT[Hyp]-NH2
SMILES: CC[C@H](C)[C@H](NC(=O)[C@@H]1CCCN1C(=O)[C@H](CCCCN)NC(=O)[C@H](CC(C)C)NC(=O)[C@H](CC(N)=O)NC(=O)[C@H](CO)NC(=O)[C@H](CO)NC(=O)[C@H](CO)NC(=O)[C@H](Cc1c[nH]cn1)NC(=O)[C@H](CCCNC(=N)N)NC(=O)[C@H](CC(C)C)NC(=O)[C@H](Cc1ccccc1)NC(=O)[C@H](CC(=O)O)NC(=O)[C@H](C)NC(=O)[C@H](CC(C)C)NC(=O)[C@H](CCCNC(=N)N)NC(=O)[C@H](CCC(N)=O)NC(=O)[C@@H](NC(=O)[C@H](C)NC(=O)[C@H](C)NC(=O)[C@@H](NC(=O)[C@H](CO)NC(=O)[C@H](CC(C)C)NC(=O)[C@H](CCC(N)=O)NC(=O)[C@H](CO)NC(=O)[C@H](C)NC(=O)CC[C@H](NC(=O)CCCCCCCCCCCCCCCCCCC(=O)O)C(=O)O)[C@@H](C)O)[C@@H](C)O)C(=O)N[C@@H](CC(C)C)C(=O)N1CCC[C@H]1C(=O)N1CCC[C@H]1C(=O)N[C@H](C(=O)N[C@@H](CC(N)=O)C(=O)N[C@H](C(=O)NCC(=O)N[C@@H](CO)C(=O)N[C@@H](CC(N)=O)C(=O)N[C@H](C(=O)N1C[C@H](O)C[C@H]1C(N)=O)[C@@H](C)O)C(C)C)[C@@H](C)O

Each binder was assayed against T1, human amylin receptor (AMY3) on CHO-K1/Ga15/AMY3 amylin receptor/CRE-luc cells (human, UniProt P30988 25-474; O60896 24-148) (assay: cell-based or functional assay).
T1 sequence (looked up) 1: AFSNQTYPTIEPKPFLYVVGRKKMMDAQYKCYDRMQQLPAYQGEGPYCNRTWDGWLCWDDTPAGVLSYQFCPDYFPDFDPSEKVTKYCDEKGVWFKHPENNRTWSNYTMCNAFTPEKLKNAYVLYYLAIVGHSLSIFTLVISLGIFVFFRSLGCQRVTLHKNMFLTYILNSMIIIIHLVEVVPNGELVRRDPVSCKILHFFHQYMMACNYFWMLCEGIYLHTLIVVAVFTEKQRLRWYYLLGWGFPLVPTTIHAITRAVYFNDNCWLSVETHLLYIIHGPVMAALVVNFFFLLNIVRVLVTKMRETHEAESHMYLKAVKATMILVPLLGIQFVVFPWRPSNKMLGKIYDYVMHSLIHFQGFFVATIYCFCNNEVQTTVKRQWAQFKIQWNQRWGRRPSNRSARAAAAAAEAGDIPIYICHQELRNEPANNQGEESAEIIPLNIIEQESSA
T1 sequence (looked up) 2: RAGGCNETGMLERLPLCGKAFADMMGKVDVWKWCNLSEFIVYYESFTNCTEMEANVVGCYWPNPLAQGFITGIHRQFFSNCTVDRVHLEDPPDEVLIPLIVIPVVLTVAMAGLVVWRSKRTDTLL
For B1, the “EC50/nM, CRE-luciferase reporter in amylin receptor/CRE-luc CHO cells” value (from here on “EC50/nM … in amylin receptor/CRE-luc CHO cells”) was 0.05 nM and the “Relative activity (the EC50 ratio of Cagrilintide to the compound)” value was 180%. B2 was tested, and the “EC50/nM … in amylin receptor/CRE-luc CHO cells” value was 0.1 nM and the “Relative activity (the EC50 ratio of Cagrilintide to the compound)” value was 130%. B3 was tested, and the “EC50/nM … in amylin receptor/CRE-luc CHO cells” value was 0.07 nM and the “Relative activity (the EC50 ratio of Cagrilintide to the compound)” value was 129%. B4 was tested, and the “EC50/nM … in amylin receptor/CRE-luc CHO cells” value was 0.06 nM and the “Relative activity (the EC50 ratio of Cagrilintide to the compound)” value was 150%. With B5 the “EC50/nM … in amylin receptor/CRE-luc CHO cells” value was 0.08 nM and the “Relative activity (the EC50 ratio of Cagrilintide to the compound)” value was 113%. B6 was tested, and the “EC50/nM … in amylin receptor/CRE-luc CHO cells” value was 0.05 nM and the “Relative activity (the EC50 ratio of Cagrilintide to the compound)” value was 180%.

Source: patent EP4663654A1 (Hangzhou Sciwind Biosciences Co., Ltd., dated 2025)
